Biological target: Blom7α-His6 (pET-30a(+)) (human, UniProt Q7Z7F0-1 1-614)
Experiment: pull-down

B1: GST-SNEV^Prp19-Pso4 (natural protein)
chain: MSLICSISNEVPEHPCVSPVSNHVYERRLIEKYIAENGTDPINNQPLSEEQLIDIKVAHPIRPKPPSATSIPAILKALQDEWDAVMLHSFTLRQQLQTTRQELSHALYQHDAACRVIARLTKEVTAAREALATLKPQAGLIVPQAVPSSQPSVVGAGEPMDLGELVGMTPEIIQKLQDKATVLTTERKKRGKTVPEELVKPEELSKYRQVASHVGLHSASIPGILALDLCPSDTNKILTGGADKNVVVFDKSSEQILATLKGHTKKVTSVVFHPSQDLVFSASPDATIRIWSVPNASCVQVVRAHESAVTGLSLHATGDYLLSSSDDQYWAFSDIQTGRVLTKVTDETSGCSLTCAQFHPDGLIFGTGTMDSQIKIWDLKERTNVANFPGHSGPITSIAFSENGYYLATAADDSSVKLWDLRKLKNFKTLQLDNNFEVKSLIFDQSGTYLALGGTDVQIYICKQWTEILHFTEHSGLTTGVAFGHHAKFIASTGMDRSLKFYSL
B1: binds.

Source: publication PMC2781463 (The Journal of Biological Chemistry, 2009)
